In the series the target is Polα-primase, recombinant (Insect PP) (Homo sapiens, UniProt P09884;Q14181;P49642;P49643 1-1462;1-598;1-420;1-509). In words: EMSA; Kd,app similar to CST-Polα-primase, value only in figure; complex dissociates during electrophoresis; CST EMSA: 20 mM HEPES-NaOH pH 8.0, 150 mM NaCl, 2 mM MgCl2, 0.2 mM EGTA, 0.1% NP-40, 10% glycerol, 1 mM DTT, 2 h on ice, 0.7% agarose 1x TBE gel at 4 °C; POT1-TPP1N EMSA: C-strand synthesis buffer, 30 min at 30 °C. The settings on record: protein: recombinant; copies: 1;1;1;1; label: 5'-32P; folds into G-quadruplex in KCl and NaCl, not LiCl. On the technique in general: Mobility shift assays separate free from complexed probe on a gel.
Polα-primase, recombinant (Insect PP), sequence (P09884 whole entry, chain 1 of 4): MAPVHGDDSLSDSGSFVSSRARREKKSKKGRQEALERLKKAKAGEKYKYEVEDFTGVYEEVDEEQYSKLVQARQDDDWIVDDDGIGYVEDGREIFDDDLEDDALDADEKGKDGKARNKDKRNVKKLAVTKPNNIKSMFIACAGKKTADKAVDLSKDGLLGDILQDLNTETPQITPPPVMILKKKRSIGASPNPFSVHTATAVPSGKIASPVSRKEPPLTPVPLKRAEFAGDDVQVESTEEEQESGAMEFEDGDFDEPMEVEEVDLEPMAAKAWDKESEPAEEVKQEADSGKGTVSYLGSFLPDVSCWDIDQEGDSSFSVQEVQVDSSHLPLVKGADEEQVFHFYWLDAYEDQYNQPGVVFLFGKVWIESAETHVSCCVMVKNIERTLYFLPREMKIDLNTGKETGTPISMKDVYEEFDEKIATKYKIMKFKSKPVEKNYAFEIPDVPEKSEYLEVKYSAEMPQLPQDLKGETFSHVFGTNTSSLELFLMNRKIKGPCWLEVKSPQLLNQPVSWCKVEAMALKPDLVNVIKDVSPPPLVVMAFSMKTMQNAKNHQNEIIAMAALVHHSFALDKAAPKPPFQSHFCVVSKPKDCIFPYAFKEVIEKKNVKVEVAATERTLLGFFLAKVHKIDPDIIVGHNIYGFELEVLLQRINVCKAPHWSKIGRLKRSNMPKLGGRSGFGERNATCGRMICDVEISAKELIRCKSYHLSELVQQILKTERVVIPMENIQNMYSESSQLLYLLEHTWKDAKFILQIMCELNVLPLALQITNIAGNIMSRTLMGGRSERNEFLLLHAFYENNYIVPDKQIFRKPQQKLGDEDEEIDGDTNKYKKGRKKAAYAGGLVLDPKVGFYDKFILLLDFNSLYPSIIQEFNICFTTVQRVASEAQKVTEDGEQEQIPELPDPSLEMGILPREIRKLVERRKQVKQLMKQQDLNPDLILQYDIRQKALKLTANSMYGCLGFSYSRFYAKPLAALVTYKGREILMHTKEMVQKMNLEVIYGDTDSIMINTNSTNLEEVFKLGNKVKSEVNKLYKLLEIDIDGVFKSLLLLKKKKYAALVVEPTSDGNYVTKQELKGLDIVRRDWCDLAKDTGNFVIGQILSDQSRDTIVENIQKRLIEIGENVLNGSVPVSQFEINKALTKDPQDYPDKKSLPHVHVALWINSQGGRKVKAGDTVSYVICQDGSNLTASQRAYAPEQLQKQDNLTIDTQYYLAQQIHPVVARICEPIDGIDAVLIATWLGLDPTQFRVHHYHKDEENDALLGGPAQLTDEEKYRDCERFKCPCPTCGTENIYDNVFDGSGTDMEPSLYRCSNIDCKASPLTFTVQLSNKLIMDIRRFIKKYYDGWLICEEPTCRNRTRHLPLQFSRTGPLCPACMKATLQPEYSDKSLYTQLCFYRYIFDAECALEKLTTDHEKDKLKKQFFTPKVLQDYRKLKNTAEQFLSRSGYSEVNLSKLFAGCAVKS
Polα-primase, recombinant (Insect PP), sequence (Q14181 whole entry, chain 2 of 4): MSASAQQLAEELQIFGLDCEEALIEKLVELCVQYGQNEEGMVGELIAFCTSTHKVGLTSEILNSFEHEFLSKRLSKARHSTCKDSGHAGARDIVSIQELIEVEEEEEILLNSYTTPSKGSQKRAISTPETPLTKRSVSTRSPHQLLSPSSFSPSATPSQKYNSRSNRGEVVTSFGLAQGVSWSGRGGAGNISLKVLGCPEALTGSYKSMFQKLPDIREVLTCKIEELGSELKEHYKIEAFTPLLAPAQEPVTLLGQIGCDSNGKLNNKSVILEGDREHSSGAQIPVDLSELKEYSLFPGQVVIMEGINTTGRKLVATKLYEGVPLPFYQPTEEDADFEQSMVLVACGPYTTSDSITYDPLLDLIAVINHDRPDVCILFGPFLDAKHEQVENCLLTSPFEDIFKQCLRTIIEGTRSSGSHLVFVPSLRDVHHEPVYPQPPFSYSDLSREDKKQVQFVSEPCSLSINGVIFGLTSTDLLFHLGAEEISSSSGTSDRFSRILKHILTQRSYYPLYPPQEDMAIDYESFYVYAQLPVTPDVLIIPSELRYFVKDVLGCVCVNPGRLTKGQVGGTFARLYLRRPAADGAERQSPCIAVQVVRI
Polα-primase, recombinant (Insect PP), sequence (P49642 whole entry, chain 3 of 4): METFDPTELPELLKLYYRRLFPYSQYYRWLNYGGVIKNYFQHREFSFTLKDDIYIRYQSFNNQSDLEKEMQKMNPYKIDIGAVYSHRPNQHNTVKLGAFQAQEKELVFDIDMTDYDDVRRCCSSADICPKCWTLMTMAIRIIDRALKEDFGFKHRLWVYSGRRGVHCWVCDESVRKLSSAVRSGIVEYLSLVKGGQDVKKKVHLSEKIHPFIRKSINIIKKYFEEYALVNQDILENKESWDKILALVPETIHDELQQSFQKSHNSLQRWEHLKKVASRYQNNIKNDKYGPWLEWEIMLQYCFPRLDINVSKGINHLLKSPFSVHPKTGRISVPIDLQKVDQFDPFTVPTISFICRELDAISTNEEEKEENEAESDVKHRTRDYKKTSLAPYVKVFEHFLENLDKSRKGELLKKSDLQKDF
Polα-primase, recombinant (Insect PP), sequence (P49643 whole entry, chain 4 of 4): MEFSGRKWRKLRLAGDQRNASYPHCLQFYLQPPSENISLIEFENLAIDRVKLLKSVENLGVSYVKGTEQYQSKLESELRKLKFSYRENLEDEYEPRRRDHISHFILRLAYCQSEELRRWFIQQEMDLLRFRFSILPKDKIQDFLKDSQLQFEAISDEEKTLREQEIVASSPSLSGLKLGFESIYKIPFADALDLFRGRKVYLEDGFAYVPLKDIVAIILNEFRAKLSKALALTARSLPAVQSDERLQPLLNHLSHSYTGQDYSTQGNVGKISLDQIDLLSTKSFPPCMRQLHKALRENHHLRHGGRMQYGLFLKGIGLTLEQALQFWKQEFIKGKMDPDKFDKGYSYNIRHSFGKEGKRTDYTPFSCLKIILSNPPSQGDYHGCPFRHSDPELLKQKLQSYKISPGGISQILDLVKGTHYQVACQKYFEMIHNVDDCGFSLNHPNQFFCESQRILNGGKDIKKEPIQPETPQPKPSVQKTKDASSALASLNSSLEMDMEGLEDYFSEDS

B1: 9xTEL (ssDNA)
DNA: TTAGGGTTAGGGTTAGGGTTAGGGTTAGGGTTAGGGTTAGGGTTAGGGTTAGGG
For the molecule B1, the binding result was “binds”.

Source of the values: publication PMC9402439, “Reconstitution of a telomeric replicon organized by CST”.
